In assay [1] the target is T1, human calcitonin receptor (human, UniProt P30988 25-474).
T1 construct: whole, on cells; Membranes in a scintillation proximity assay (Assay VII); also called hCTR; hCT
T1 sequence (looked up): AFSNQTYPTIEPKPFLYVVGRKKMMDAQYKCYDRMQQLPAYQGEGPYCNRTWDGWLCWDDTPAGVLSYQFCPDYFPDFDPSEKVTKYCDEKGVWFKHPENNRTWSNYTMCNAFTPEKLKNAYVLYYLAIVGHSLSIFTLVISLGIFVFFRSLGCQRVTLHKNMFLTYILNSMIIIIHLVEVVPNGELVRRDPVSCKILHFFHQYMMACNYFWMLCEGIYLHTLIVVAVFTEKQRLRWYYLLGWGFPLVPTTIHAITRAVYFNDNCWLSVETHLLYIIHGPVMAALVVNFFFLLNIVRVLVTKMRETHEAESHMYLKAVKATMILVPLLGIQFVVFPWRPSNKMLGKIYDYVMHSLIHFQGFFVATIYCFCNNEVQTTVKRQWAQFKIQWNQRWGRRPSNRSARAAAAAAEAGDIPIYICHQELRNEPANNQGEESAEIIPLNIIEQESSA
Put plainly: ratio of IC50 at human calcitonin receptor to IC50 at human amylin receptor (reference), SPA binding assays. Here is the method: The resulting pellet was resuspended, homogenized and centrifuged (20.000 rpm, 15 min) in a buffer containing 20 mM Na-HEPES and 0.1 mM EDTA (pH 7.4, buffer 2). The resulting pellet was resuspended in buffer 2 and protein concentration was measured (BCA protein Assay, Pierce). The homogenate was kept cold during the whole procedure. The membranes were kept at −80° C. until use. The assay was performed in a 384 well Optiplate (PerkinElmer) in a total volume of 40 ul. Membranes were mixed with SPA beads. Final concentration of membranes 35 ng/μL final and SPA beads was 0.05 mg/well. Test-compounds were dissolved in DMSO and further diluted in assay buffer (50 mM Hepes, pH 7.4, 1 mM CaCl2, 5 mM MgCl₂, 0.1% OA and 0.02% Tween20). […] The final mixture was incubated with shaking at 400 rpm for 120 min at 25° C. prior to centrifugation (1500 rpm, 10 min). Samples were analyzed on TopCounter™ (Packard). The IC₅₀ was calculated using (one site binding competition analysis) GraphPad Prism5 as a measure of receptor affinity.
Membranes were prepared in the following way; the cells were rinsed with PBS and incubated with Versene for approximately 5 min before harvesting. The cells were flushed with PBS and the cell-suspension was centrifuged for 5 min at 1000 rpm. Cells were homogenized (Ultrathurrax) in a buffer containing 20 mM Na-HEPES and 10 mM EDTA (pH 7.4) and centrifuged at 20.000 rpm for 15 min. The resulting pellet was resuspended, homogenized and centrifuged (20.000 rpm, 15 min) in a buffer containing 20 mM Na-HEPES and 0.1 mM EDTA (pH 7.4, buffer 2). The resulting pellet was resuspended in buffer 2 and protein concentration was measured (BCA protein Assay, Pierce). The homogenate was kept cold during the whole procedure. The membranes were kept at −80° C. until use. Assay was performed in a 384 well Optiplate (PerkinElmer) in a total volume of 40 ul. Membranes were mixed with SPA beads.

Assay [2] deals with T1, human calcitonin receptor. The assay is described as follows: SPA competition binding, displacement of 125I-calcitonin from membranes with human calcitonin receptor (Assay VII). Here is the method: Membranes were prepared in the following way; the cells were rinsed with PBS and incubated with Versene for approximately 5 min before harvesting. The cells were flushed with PBS and the cell-suspension was centrifuged for 5 min at 1000 rpm. Cells were homogenized (Ultrathurrax) in a buffer containing 20 mM Na-HEPES and 10 mM EDTA (pH 7.4) and centrifuged at 20.000 rpm for 15 min. The resulting pellet was resuspended, homogenized and centrifuged (20.000 rpm, 15 min) in a buffer containing 20 mM Na-HEPES and 0.1 mM EDTA (pH 7.4, buffer 2). The resulting pellet was resuspended in buffer 2 and protein concentration was measured (BCA protein Assay, Pierce). The homogenate was kept cold during the whole procedure. The membranes were kept at −80° C. until use. Assay was performed in a 384 well Optiplate (PerkinElmer) in a total volume of 40 ul. Membranes were mixed with SPA beads. Final concentration of membranes 35 ng/μL final and Final concentration of SPA beads was 0.05 mg/well. Test-compounds were dissolved in DMSO and further diluted in assay buffer (50 mM Hepes, pH 7.4, 1 mM CaCl2, 5 mM MgCl₂, 0.1% OA and 0.02% Tween20). […] The final mixture was incubated for 120 min with shaking at 400 rpm at 25° C. prior to centrifugation (1500 rpm, 10 min). Samples were analyzed on TopCounter™ (Packard). The […] was calculated using (one site binding competition analysis) GraphPad Prism5 as a measure of receptor affinity.
On the technique in general: Loss of bound radioactivity is the signal in a displacement assay; it reports binding, not function.

Assay [3] addresses T2, human calcitonin receptor (human, UniProt P30988 25-474).
T2 sequence (looked up): T1 sequence (looked up)
The assay is described as follows: cell-based or functional assay.

The target of assay [4] is T3, human amylin receptor (amylin 3(a) receptor: human calcitonin receptor with RAMP-3) (human, UniProt P30988 25-474; O60896 24-148).
T3 sequence (looked up) 1: T1 sequence (looked up)
T3 sequence (looked up) 2: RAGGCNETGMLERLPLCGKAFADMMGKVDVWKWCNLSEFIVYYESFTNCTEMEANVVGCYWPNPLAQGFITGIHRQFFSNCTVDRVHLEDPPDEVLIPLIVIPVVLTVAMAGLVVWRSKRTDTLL
Put plainly: cell-based or functional assay.

Assay [5] concerns the target T3, human amylin receptor (amylin 3(a) …). Put plainly: SPA competition, displacement of 125I-rat amylin from membranes of BHK cells with the human amylin 3(a) receptor. As for the experimental part: (§1) The binding assay was performed using scintillation proximity assay (SPA) beads (RPNQ0001) from PerkinElmer and cell membranes from the Amylin 3(a)/CRE-luc cells (as described in Assay (II)) were used. Membranes were prepared in the following way; the cells were rinsed with PBS and incubated with Versene for approximately 5 min before harvesting. The cells were flushed with PBS and the cell-suspension was centrifuged for 5 min at 1000 rpm. Cells were homogenized (ultrathurrax) in a buffer containing 20 mM Na-HEPES and 10 mM EDTA (pH 7.4) and centrifuged at 20.000 rpm for 15 min. The resulting pellet was resuspended, homogenized and centrifuged (20.000 rpm, 15 min) in a buffer containing 20 mM Na-HEPES and 0.1 mM EDTA (pH 7.4, buffer 2). The resulting pellet was resuspended in buffer 2 and protein concentration was measured (BCA protein Assay, Pierce). The homogenate was kept cold during the whole procedure. The membranes were kept at −80° C. until use. The assay was performed in a 384 well Optiplate (PerkinElmer) in a total volume of 40 ul. Membranes were mixed with SPA beads. Final concentration of membranes 35 ng/μL final and SPA beads was 0.05 mg/well. Test-compounds were dissolved in DMSO and further diluted in assay buffer (50 mM Hepes, pH 7.4, 1 mM CaCl2, 5 mM MgCl₂, 0.1% OA and 0.02% Tween20). […] The final mixture was incubated with shaking at 400 rpm for 120 min at 25° C. prior to centrifugation (1500 rpm, 10 min). Samples were analyzed on TopCounter™ (Packard). The IC₅₀ was calculated using (one site binding competition analysis) GraphPad Prism5 as a measure of receptor affinity.

Assay [6] deals with T4, human amylin receptor (amylin 3(a) receptor: human calcitonin receptor plus RAMP-3) (human, UniProt P30988 25-474; O60896 24-148).
T4 construct: whole, on cells; the species of RAMP-3 is told only through the name 'human amylin receptor'; also called hAmylin-R; hAmylinR
T4 sequence (looked up) 1: T1 sequence (looked up)
T4 sequence (looked up) 2: T3 sequence (looked up) 2
The assay is described as follows: SPA competition binding, membranes with human amylin 3(a) receptor, displacement of 125I-rat amylin (Assay V). As for the experimental part: as §1

Assay [7] addresses T5, human calcitonin receptor (human, UniProt P30988 25-474).
T5 construct: whole, on cells; also called hCTR; hCT
T5 sequence (looked up): T1 sequence (looked up)
The assay is described as follows: ratio of IC50 at hCTR to IC50 at the human amylin receptor (reference). In short, it runs like this: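 IC₅₀ values were derived by one-site competition analysis of SPA counts. Cell membranes (35 ng/μL) with SPA beads were incubated with test compounds for 120 min at 25° C in Hepes buffer, pH 7.4, containing CaCl2, MgCl₂, OA and Tween20.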

For assay [8], the target named is T5, human calcitonin receptor. Put plainly: SPA competition binding, membranes with human calcitonin receptor, displacement of 125I-calcitonin (Assay VII). An outline of the steps: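 BHK hCTR membranes 35 ng/μL + SPA beads 0.05 mg/well; buffer 50 mM Hepes pH 7.4, 1 mM CaCl2, 5 mM MgCl₂, 0.1% OA, 0.02% Tween20. 120 min, 25° C., shaking. Scintillation count; IC50 by one-site binding competition.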

Numbering of substitutions follows the chain as printed. Numbered stars: 1 amine (or outer) side, 2 acyl side, 3 side chain; on linkers, the order of the positions; unused ones are H or OH. Bridge positions count the residues as written; N and C are the ends. Side chains are listed from the residue outwards. Ends that are not written are not given here. * marks the point of attachment. C20 diacid = O=C(O)CCCCCCCCCCCCCCCCCCC(=O)*; γGlu = O=C(O)[C@H](CCC(=O)[*:2])N[*:1]

By IC50 is commonly meant the concentration at which inhibition is half-maximal. As for K([γGlu-γGlu-C20 diacid])CNTATCATQRLADFLRHSSPNFGAIPSSTNVGPRTY-NH2 (disulfide 2-7 (inferred), also called compound 130), the “Ratio hCT/hAmylin binding” value in assay [1] is 280. The IC50 in assay [2] worked out at 127 nM.

B1: N^ε1-[(4S)-4-carboxy-4-[[(4S)-4-carboxy-4-(19-carboxynonadecanoylamino)butanoyl]amino]butanoyl]-[Asp14,Arg17,Pro22,Pro26,Asp35]-h-amylin (peptide)
peptide: K([γGlu-γGlu-C20 diacid])CNTATCATQRLADFLRHSSNPFGAPLSSTNVGSDTY-NH2
modifications: disulfide 2-7; N-terminus assumed
SMILES: CC(C)C[C@H](NC(=O)[C@H](CCCNC(=N)N)NC(=O)[C@H](CCC(N)=O)NC(=O)[C@@H](NC(=O)[C@H](C)NC(=O)[C@@H]1CSSC[C@H](NC(=O)[C@@H](N)CCCCNC(=O)CC[C@H](NC(=O)CC[C@H](NC(=O)CCCCCCCCCCCCCCCCCCC(=O)O)C(=O)O)C(=O)O)C(=O)N[C@@H](CC(N)=O)C(=O)N[C@@H]([C@@H](C)O)C(=O)N[C@@H](C)C(=O)N[C@@H]([C@@H](C)O)C(=O)N1)[C@@H](C)O)C(=O)N[C@@H](C)C(=O)N[C@@H](CC(=O)O)C(=O)N[C@@H](Cc1ccccc1)C(=O)N[C@@H](CC(C)C)C(=O)N[C@@H](CCCNC(=N)N)C(=O)N[C@@H](Cc1c[nH]cn1)C(=O)N[C@@H](CO)C(=O)N[C@@H](CO)C(=O)N[C@@H](CC(N)=O)C(=O)N1CCC[C@H]1C(=O)N[C@@H](Cc1ccccc1)C(=O)NCC(=O)N[C@@H](C)C(=O)N1CCC[C@H]1C(=O)N[C@@H](CC(C)C)C(=O)N[C@@H](CO)C(=O)N[C@@H](CO)C(=O)N[C@H](C(=O)N[C@@H](CC(N)=O)C(=O)N[C@H](C(=O)NCC(=O)N[C@@H](CO)C(=O)N[C@@H](CC(=O)O)C(=O)N[C@H](C(=O)N[C@@H](Cc1ccc(O)cc1)C(N)=O)[C@@H](C)O)C(C)C)[C@@H](C)O
notes: also called compound 3
Take B1: in assay [3], the “Ratio hCT/hAmylin funct.” value came to 6.7 and the “hCTR funct. EC50” value was found to be 1380 pM. Also, the “hAmylin-R funct. EC50” value in assay [4] was 205 pM. Besides, the IC50 in assay [5] is 1.13 nM.

Turning to K([γGlu-C20 diacid])CNTATCATQRLADFLRHSSPNFGAIPSSTNVGPRTY-NH2 (disulfide 2-7 (inferred)), the “Ratio hCT/hAmylin binding” value in assay [1] stood at 151. In addition, the IC50 in assay [2] worked out at 42.5 nM.

In the case of K([γGlu-γGlu-C20 diacid])CNTATCATQRLAEFLRHSSPNFGAIPSSTNVGPNTF-NH2 (disulfide 2-7 (inferred)), the “Ratio hCT/hAmylin binding” value in assay [1] was 18. Further, the IC50 in assay [2] stood at 2.73 nM.

As for K([γGlu-C20 diacid])CNTATCATQRLAEFLRHSSPNFGAIPSSTNVGSHTY-NH2 (disulfide 2-7 (inferred)), in assay [1], the “Ratio hCT/hAmylin binding” value worked out at 26.4. Moreover, the IC50 in assay [2] stood at 26.1 nM.

In the case of K([γGlu-γGlu-C20 diacid])CNTATCATQRLAEFLRHSSPNFGAIPSSTNVGPHTY-NH2 (disulfide 2-7 (inferred)), the “Ratio hCT/hAmylin binding” value in assay [1] is 27.3. In addition, the IC50 in assay [2] came out at 10.3 nM.

For K([γGlu-C20 diacid])CNTATCATQRLADFLRHSSPNFGAIPSSTNVGPETY-NH2 (disulfide 2-7 (inferred)), the “Ratio hCT/hAmylin binding” value in assay [1] worked out at 16.7. Also, the IC50 in assay [2] amounted to 3.27 nM.

B2: N^α1-[2-[2-[2-[[2-[2-[2-[[(4S)-4-carboxy-4-(19-carboxynonadecanoylamino)butanoyl]amino]ethoxy]ethoxy]acetyl]amino]ethoxy]ethoxy]acetyl]-[Arg17,Pro21,Pro27]-h-am … (peptide)
peptide: KCNTATCATQRLANFLRHSSPNFGAIPSSTNVGSNTY
modifications: C20 diacid-gGlu-2xOEG on the alpha amino group of the N-terminal residue; disulfide bridge Cys2-Cys7; C-terminal amide
notes: also called compound 24
With B2, the IC50 in assay [6] amounted to 1.14 nM; in assay [8], 102 nM. The “Ratio hCT/hAmylin binding” value in assay [7] came out at 90.

B3: N^α1-[(4S)-4-carboxy-4-(19-carboxynonadecanoylamino)butanoyl]-[Arg17,Pro21,Pro27,Lys35]-h-amylin (peptide)
peptide: B2 peptide with N35K
modifications: C20 diacid-gGlu on the alpha amino group of the N-terminal residue; disulfide bridge Cys2-Cys7; C-terminal amide
notes: also called compound 34
Regarding B3, the results for the IC50 in assay [6] and in assay [8] were 1.14 nM and 73.4 nM, respectively. Also, the “Ratio hCT/hAmylin binding” value in assay [7] stood at 64.4.

Values taken from patent publication US20140087995A1 (published 2014).
